Reference: the supplement of paper PMC10567573

B1: GLTSCR2 (parent)
chain: LARRRRRRQARREAEADKPRRLGR

Variants of: B1
Assay: protein stability index of a GFP-peptide fusion (GPS, HEK-293T) (PSI 1-6); higher = more stable
Details: c terminus: a fixed tail appended
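Further: lentivirally expressed fusions sorted by FACS into six bins by GFP to DsRed ratio, PSI derived from sequencing read proportions per bin multiplied by bin number.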

Variant | protein stability index
LARRRRRRQARREAEADKNRRLGR | 4.58
LARRRRRRQARREAEADKRRRLGR | 4.54
LARRRRRRQARREAEADKMRRLGR | 4.08
LARRRRRRQARREAEADKDRRLGR | 4.91
LARRRRRRQARREAEADKLRRLGR | 3.91
LARRRRRRQARREAEADKWRRLGR | 3.92
LARRRRRRQARREAEADKARRLGR | 3.92
LARRRRRRQARREAEADKHRRLGR | 4.09
LARRRRRRQARREAEADKTRRLGR | 4.39
LARRRRRRQARREAEADKPRILGR | 3.94
LARRRRRRQARREAEADKPRWLGR | 3.64
LARRRRRRQARREAEADKPRNLGR | 4.73
LARRRRRRQARREAEADKPRCLGR | 4.84
LARRRRRRQARREAEADKPRTLGR | 4.83
LARRRRRRQARREAEADKPRYLGR | 4.94
LARRRRRRQARREAEADKPRPLGR | 3.66
LARRRRRRQARREAEADKPRHLGR | 3.99
LARRRRRRQARRFAEADKPRRLGR | 4.04
LARRRRRRQARRHAEADKPRRLGR | 4.13
LARRRRRRQARRRAEADKPRRLGR | 4.4
LARRRRRRQARRLAEADKPRRLGR | 4.46
LARRRRRRQARRQAEADKPRRLGR | 4.88
LARRRRRRQARRPAEADKPRRLGR | 4.36
LARRRRRRQARRDAEADKPRRLGR | 4.61

Variant | protein stability index
LARRRRRRQARRAAEADKPRRLGR | 4.51
LARRRRRRQARRIAEADKPRRLGR | 4.73
LARRRRRRQARRGAEADKPRRLGR | 5.01
LARRRRRRQARRSAEADKPRRLGR | 4.26
LARRRRRVQARREAEADKPRRLGR | 4.18
LARRRRRNQARREAEADKPRRLGR | 4.48
LARRRRRSQARREAEADKPRRLGR | 5.01
LARRRRRGQARREAEADKPRRLGR | 4.25
LARRRRRCQARREAEADKPRRLGR | 3.8
LARRRRRAQARREAEADKPRRLGR | 4.98
LARRRRRKQARREAEADKPRRLGR | 4.3
LARRRRRMQARREAEADKPRRLGR | 4.98
LARRRRRFQARREAEADKPRRLGR | 4.64
LARRRRRQQARREAEADKPRRLGR | 4.23
LARRRRREQARREAEADKPRRLGR | 4.83
LARRRRRPQARREAEADKPRRLGR | 4.44
LARRRRRDQARREAEADKPRRLGR | 4.83
LAKRRRRRQARREAEADKPRRLGR | 5.03
LAFRRRRRQARREAEADKPRRLGR | 4.34
LATRRRRRQARREAEADKPRRLGR | 4.84
LAYRRRRRQARREAEADKPRRLGR | 3.84
LAGRRRRRQARREAEADKPRRLGR | 5.02
LAERRRRRQARREAEADKPRRLGR | 5.08
LALRRRRRQARREAEADKPRRLGR | 4.3

Variant | protein stability index
LAIRRRRRQARREAEADKPRRLGR | 4.36
LACRRRRRQARREAEADKPRRLGR | 4.74
LADRRRRRQARREAEADKPRRLGR | 4.56
LARRRRRRQARREAEGDKPRRLGR | 4.09
LARRRRRRQARREAEDDKPRRLGR | 4.82
LARRRRRRQARREAEQDKPRRLGR | 4.89
LARRRRRRQARREAEVDKPRRLGR | 4.69
LARRRRRRQARREAEFDKPRRLGR | 4.4
LARRRRRRQARREAEADKPRRVGR | 5.4
LARRRRRRQARREAEADKPRRCGR | 4.53
LARRRRRRQARREAEADKPRRSGR | 5.13
LARRRRRRQARREAEADKPRRYGR | 4.35
LARRRRRRQARREAEADKPRRRGR | 5.04
LARRRRRRQARREAEADKPRRGGR | 4.3
LARRRRRRQARREAEADKPRRMGR | 4.74
LARRRRRRQARREAEADKPRRPGR | 4.15
LARRRRRRQAPREAEADKPRRLGR | 4.62
LARRRRRRQASREAEADKPRRLGR | 4.74
LARRRRRRQAIREAEADKPRRLGR | 4.8
LARRRRRRQAAREAEADKPRRLGR | 4.53
LARRRRRRQAFREAEADKPRRLGR | 4.09
LARRRRRRQATREAEADKPRRLGR | 5.06
LARRRRRRQANREAEADKPRRLGR | 3.94
LARRRRRRQAWREAEADKPRRLGR | 4.53

Variant | protein stability index
LARRRRRRQAEREAEADKPRRLGR | 4.87
LARRRRMRQARREAEADKPRRLGR | 5.22
LARRRRCRQARREAEADKPRRLGR | 4.83
LARRRRQRQARREAEADKPRRLGR | 4.19
LARRRRWRQARREAEADKPRRLGR | 4.63
LARRRRIRQARREAEADKPRRLGR | 4.41
LARRRRRRQARREAEAVKPRRLGR | 3.99
LARRRRRRQARREAEATKPRRLGR | 4.66
LARRRRRRQARREAEARKPRRLGR | 4.82
LARRRRRRQARREAEACKPRRLGR | 4.07
LARRRRRRQARREAEAHKPRRLGR | 4.81
LARRRRRRQARREAEAEKPRRLGR | 5.31
LARRRRRRQARREAEAWKPRRLGR | 4.33
LARRRRRRQARREAEAKKPRRLGR | 4.99
LARRRRRRQARREAEAAKPRRLGR | 4.3
LARRRRRRQARREAEAGKPRRLGR | 4.24
LARRRRRRQARREATADKPRRLGR | 4.22
LARRRRRRQARREAPADKPRRLGR | 4.44
LARRRRRRQARREAVADKPRRLGR | 4.64
LARRRRRRQARREADADKPRRLGR | 4.55
LARRRRRRQARREAHADKPRRLGR | 4.55
LARRRRRRQARREAWADKPRRLGR | 3.87
LARRRRRRQARREAQADKPRRLGR | 4.52
LARRRRRRQARREAIADKPRRLGR | 4.63

Variant | protein stability index
LARRRRRRQARREAYADKPRRLGR | 4.21
LARRRRRRQARREAEADKPRRLKR | 3.76
LARRRRRRQARREAEADKPRRLWR | 4.46
LARRRRRRQARREAEADKPRRLIR | 4.53
LARRRRRRQARREAEADKPRRLQR | 4.51
LARRRRRRQARREAEADKPRRLHR | 4.79
LARRRRRRQARREAEADKPRRLTR | 5.05
LARRRRRRQIRREAEADKPRRLGR | 4.55
LARRRRRRQYRREAEADKPRRLGR | 4.9
LARRRRRRQRRREAEADKPRRLGR | 4.95
LARRRRRRQVRREAEADKPRRLGR | 4.57
LARRRRRRQDRREAEADKPRRLGR | 3.92
LARRRRRRQGRREAEADKPRRLGR | 4.25
LARRRRRRQARREAEADKPRRLGY | 4.8
LARRRRRRQARREAEADKPRRLGI | 4.47
LARRRRRRQARREAEADKPRRLGL | 4.58
LARRRRRRQARREAEADKPRRLGQ | 4.62
LARRRRRRQARREAEADKPRRLGG | 4.79
LARRRRRRQARREAEADKPRRLGK | 4.67
LARRRRRRQARREAEADKPLRLGR | 4.64
LARRRRRRQARREAEADKPERLGR | 4.52
LARRRRRRQARREAEADKPHRLGR | 5.18
LARRRRRRQARREAEADKPIRLGR | 4.36
LARRRRRRQARREAEADKPMRLGR | 4.38

Variant | protein stability index
LARRRRRRQARREAEADKPPRLGR | 5.45
LARRRRRRQARREAEADKPTRLGR | 4.82
LARRRRRRQARREAEADKPQRLGR | 4.6
LARRRRRRQARREAEADKPWRLGR | 4.41
LARRRRRRQARREAEADKPDRLGR | 4.11
LARRRRRRQARREAEADKPKRLGR | 4.64
LARRRRRRQARDEAEADKPRRLGR | 4.73
LARRRRRRQARFEAEADKPRRLGR | 4.17
LARRRRRRQARKEAEADKPRRLGR | 4.55
LARRRRRRQARLEAEADKPRRLGR | 3.76
LARRRRRRQARWEAEADKPRRLGR | 4.34
LARRRRRRQARHEAEADKPRRLGR | 4.74
LARRRRRRQARCEAEADKPRRLGR | 4.31
LARRRRRRQARAEAEADKPRRLGR | 4.71
LARRRRRRQARIEAEADKPRRLGR | 4.72
LARRRRRRQARVEAEADKPRRLGR | 5.34
LARRRRRRDARREAEADKPRRLGR | 4.44
LARRRRRRSARREAEADKPRRLGR | 4.57
LARRRRRRGARREAEADKPRRLGR | 4.46
LARRRRRRNARREAEADKPRRLGR | 4.47
LARRRRRRIARREAEADKPRRLGR | 4.75
LARRRRRRAARREAEADKPRRLGR | 4.17
LARRRRRRHARREAEADKPRRLGR | 4.73
CARRRRRRQARREAEADKPRRLGR | 5.39

Variant | protein stability index
HARRRRRRQARREAEADKPRRLGR | 5.28
KARRRRRRQARREAEADKPRRLGR | 4.56
GARRRRRRQARREAEADKPRRLGR | 5.13
IARRRRRRQARREAEADKPRRLGR | 4.9
SARRRRRRQARREAEADKPRRLGR | 5.66
QARRRRRRQARREAEADKPRRLGR | 4.51
LARRRRRRQARREAEADWPRRLGR | 3.88
LARRRRRRQARREAEADDPRRLGR | 4.78
LARRRRRRQARREAEADIPRRLGR | 4.34
LARRRRRRQARREAEADEPRRLGR | 5.03
LARRRRRRQARRESEADKPRRLGR | 4.7
LARRRRRRQARREFEADKPRRLGR | 4.11
LARRRRRRQARREMEADKPRRLGR | 4.34
LARRRRRRQARRETEADKPRRLGR | 4.97
LARRRRRRQARREEEADKPRRLGR | 5.11
LARRRRRRQARREYEADKPRRLGR | 4.6
LARRRRRRQARREQEADKPRRLGR | 4.8
LARRRPRRQARREAEADKPRRLGR | 4.57
LARRRFRRQARREAEADKPRRLGR | 3.93
LARRRGRRQARREAEADKPRRLGR | 4.55
LARRRTRRQARREAEADKPRRLGR | 4.69
LARRRCRRQARREAEADKPRRLGR | 4.5
LARRRNRRQARREAEADKPRRLGR | 5.07
LARRRHRRQARREAEADKPRRLGR | 4.28

Variant | protein stability index
LARRRQRRQARREAEADKPRRLGR | 5.03
LSRRRRRRQARREAEADKPRRLGR | 4.83
LCRRRRRRQARREAEADKPRRLGR | 4.49
LIRRRRRRQARREAEADKPRRLGR | 4.62
LMRRRRRRQARREAEADKPRRLGR | 4.19
LWRRRRRRQARREAEADKPRRLGR | 3.61
LARRIRRRQARREAEADKPRRLGR | 3.79
LARRDRRRQARREAEADKPRRLGR | 4.52
LARRFRRRQARREAEADKPRRLGR | 4.76
LARRYRRRQARREAEADKPRRLGR | 4.45
LARRARRRQARREAEADKPRRLGR | 4.69
LARRWRRRQARREAEADKPRRLGR | 4.12
LARRHRRRQARREAEADKPRRLGR | 4.18
LARRERRRQARREAEADKPRRLGR | 5.13
LARIRRRRQARREAEADKPRRLGR | 4.46
LARGRRRRQARREAEADKPRRLGR | 4.3
LARKRRRRQARREAEADKPRRLGR | 3.13
LARQRRRRQARREAEADKPRRLGR | 4.18
LARMRRRRQARREAEADKPRRLGR | 4.57
LARHRRRRQARREAEADKPRRLGR | 4.35
